In the supplement of paper PMC10126150:
± gives the standard deviation of the averaged measurements.

These sequences were tested on ATP (assay: switch fluorescence ratio, 500 uM ATP over buffer (Cy3 cluster intensity, sum of 5 cycles each) (fold (ratio)); higher = stronger signal-on switching upon ATP binding; sequences stand for … in TCGTCGGCAGCGTCAGATGTGTATAAGAGACAGTTTTTTTTTTTTTTTTTTTTTTTTT…TC). Settings: aptamer strand: ATP DNA aptamer (quencher-CACCTGGGGGAGTATTGCGGAGGAAGG + anchor), 100 nM annealed; ATP concentration: 500 uM.
How it was run: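 Clusters with intensities outside 100-1000 RFU were excluded. The remaining Cy3-labelled switching-strand clusters on a modified Illumina MiSeq flow-cell had been annealed to 100 nM quencher-labelled ATP aptamer and imaged in selection buffer, then after 15 min with 500 uM ATP at 22 °C, for five cycles separated by NaOH stripping and re-annealing. The fluorescence ratio, averaged per switch-domain sequence, is each cluster's summed target-cycle Cy3 intensity over its summed buffer-cycle Cy3 intensity.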
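Note: ATP exposure 15 min at 22 °C before imaging.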

Row | Sequence | switch fluorescence ratio
1 | GCCGGGGCAG | 1.01 ± 0.033
2 | TTTTCTACGG | 0.989 ± 0.02
3 | ATTCGATTTC | 1 ± 0.033
4 | TAATTGGGGC | 1.02 ± 0.012
5 | TTGATTGTTG | 0.982 ± 0.013
6 | TGTGGGGGGG | 1.01 ± 0.045
7 | ATCATCGGGA | 1.01 ± 0.013
8 | CTTTGTTTTT | 0.9893 ± 0.0089
9 | CAGGAAAACG | 1.03 ± 0.018
10 | CAAGTTAAGG | 1.02 ± 0.013
11 | ACGACCGGGT | 1.2 ± 0.037
12 | ACTCGGCCGG | 1.001 ± 0.009
13 | GGTTTTTTAG | 0.996 ± 0.021
14 | GGTTTGTAAC | 0.978 ± 0.029
15 | GTTTTGCCTG | 0.998 ± 0.0045
16 | CTATGAATGG | 0.975 ± 0.057
17 | AACGAGTGTG | 1.01 ± 0.052
18 | GTGAGTGTTT | 0.99 ± 0.011
19 | GCTAGCAATG | 0.982 ± 0.037
20 | TTCCCAGTGT | 1.87 ± 0.053
21 | ATTTATATCC | 1.02 ± 0.013
22 | TGGGATGGGC | 1.05 ± 0.14
23 | ACGGTCCAGG | 3 ± 0.5
24 | GGGGGAAATT | 1.03 ± 0.015
25 | TCAGTTTTAC | 1.01 ± 0.052

Row | Sequence | switch fluorescence ratio
26 | GGATGGAGGC | 0.987 ± 0.059
27 | TGTAAAGGCG | 0.953 ± 0.039
28 | AAAATAATTC | 1 ± 0.059
29 | GTTGGGGCCG | 0.991 ± 0.0068
30 | TGAAGAAGGT | 1.03 ± 0.015
31 | TAGAGGCTGA | 0.9937 ± 0.0054
32 | ATCTGCTTGA | 0.974 ± 0.042
33 | TGGGGAGTGT | 0.9849 ± 0.0076
34 | CAGTAGAAAG | 1.01 ± 0.0081
35 | TAGCAGGACT | 1.76 ± 0.22
36 | CATGGATGGC | 1.06 ± 0.03
37 | TCGTCTAATG | 0.9784 ± 0.0016
38 | GTTTCGTTGT | 0.9798 ± 0.0019
39 | TAAATCCTA | 1.02 ± 0.022
40 | ATTTGTTACG | 1.01 ± 0.046
41 | AATCGCTTGG | 0.9965 ± 0.006
42 | AGGATGACAG | 0.998 ± 0.04
43 | CGCGGGTAAC | 1.036 ± 0.0077
44 | ACGGGCTTCT | 1.005 ± 0.0047
45 | AGAATCGGCG | 1.03 ± 0.0081
46 | ATGGATTTAG | 1.014 ± 0.008
47 | TAGGAATTTG | 0.998 ± 0.037
48 | AAAGACATCT | 1.02 ± 0.095
49 | TGTGGTCTGT | 0.981 ± 0.033
50 | TAGCTGGATA | 0.9837 ± 0.005

Row | Sequence | switch fluorescence ratio
51 | GACAATAGGC | 1.1 ± 0.045
52 | GGTTGGCGTT | 0.961 ± 0.03
53 | CAAAGTAATT | 0.983 ± 0.033
54 | GGCTTTATTC | 0.984 ± 0.044
55 | CTACTTAGGG | 1.03 ± 0.036
56 | TGGGGGAGCA | 0.9811 ± 0.0094
57 | GGGAAGTTTG | 1 ± 0.038
58 | GCCGCGTATA | 1.43 ± 0.058
59 | GTAGGGAGGG | 0.987 ± 0.013
60 | GCTTAGTTGT | 1.015 ± 0.0065
61 | ATCTGTGAAC | 1.05 ± 0.073
62 | CAGAATGTTA | 1 ± 0.038
63 | GTTTTTTGGA | 1.01 ± 0.018
64 | GGGGCGGTTT | 1.01 ± 0.046
65 | TTTGACTTTC | 1.07 ± 0.025
66 | GAGGGGTTAG | 0.978 ± 0.014
67 | TACAATCGCC | 1.06 ± 0.029
68 | AGAGTGGTGT | 1 ± 0.024
69 | TAAGTGGTGA | 1.04 ± 0.056
70 | TTTTACGGAT | 1.01 ± 0.012
71 | GAGCGATGTC | 1.07 ± 0.035
72 | TTTGGGATTT | 1.04 ± 0.15
73 | CAGGTTGTGT | 0.99 ± 0.031
74 | ATGAATTGTT | 0.974 ± 0.02
75 | GAAGGATAGC | 0.998 ± 0.018

Row | Sequence | switch fluorescence ratio
76 | TTGATTTCGA | 1.06 ± 0.019
77 | CCAAAGGGAC | 1.089 ± 0.0061
78 | TGCTAGTGGT | 1.01 ± 0.016
79 | ATCGAGTGCT | 0.952 ± 0.016
80 | TTACCCATTT | 1.1 ± 0.085
81 | TATGGAGAGG | 0.984 ± 0.015
82 | TGGCAAAATG | 0.9915 ± 0.0088
83 | GAAGGTTAGG | 0.9866 ± 0.0081
84 | TCAATGTTTG | 1.008 ± 0.0069
85 | CGTGGGGTCA | 0.982 ± 0.024
86 | TGGGTTCGAG | 1.005 ± 0.0097
87 | CTAGGTGTGA | 1.07 ± 0.017
88 | GAAGGGAGAG | 0.993 ± 0.031
89 | CCGTGCACGG | 0.978 ± 0.021
90 | AATCTGGCTG | 0.991 ± 0.023
91 | AAATAACTGA | 0.994 ± 0.029
92 | GAGGAGGCCA | 0.9828 ± 0.0053
93 | GGTTGGCTTT | 1.01 ± 0.069
94 | TTAAAGCTGG | 0.978 ± 0.017
95 | AAGCGCTTTT | 0.979 ± 0.058
96 | GAGTAAGTTT | 1.012 ± 0.0081
97 | TGTGGGTTGG | 0.956 ± 0.018
98 | ATTAAAGGAT | 0.995 ± 0.033
99 | CGTGTATTTC | 1.02 ± 0.022
100 | GAGTCTAAGT | 0.996 ± 0.026

Row | Sequence | switch fluorescence ratio
101 | TTGTCACAGC | 1.03 ± 0.022
102 | TGGGCTAATT | 1.02 ± 0.04
103 | TAATTTACTA | 1.04 ± 0.03
104 | TTTTTTCGAT | 0.995 ± 0.047
105 | GATTGGTGTT | 0.956 ± 0.025
106 | AAGGACGCTG | 0.991 ± 0.069
107 | GTTATTATTG | 1.02 ± 0.013
108 | GATGTCTAGC | 0.9894 ± 0.0065
109 | ATATATAAGT | 0.972 ± 0.011
110 | TGGGGGATCT | 1 ± 0.038
111 | GCTCGCCTTA | 0.999 ± 0.039
112 | CACGACTTCC | 2.27 ± 0.12
113 | TGTATTGGTT | 0.99 ± 0.034
114 | GGGCTGAGGG | 0.988 ± 0.029
115 | TGGATTTGCA | 1.03 ± 0.022
116 | TGATAGGACA | 0.983 ± 0.023
117 | TGTCTGAGGG | 1 ± 0.013
118 | TTATTAATTT | 1 ± 0.03
119 | CTAAAGGAAG | 1.01 ± 0.029
120 | TTGGGCTTGC | 1.04 ± 0.029
121 | ACATTTCAAA | 0.987 ± 0.0069
122 | GGGAATAGGG | 1.01 ± 0.02
123 | CGCAGGAAAG | 0.973 ± 0.0023
124 | AGAGGGGAAT | 1.01 ± 0.023
125 | TTGGTTTATG | 0.993 ± 0.045

Row | Sequence | switch fluorescence ratio
126 | TTATTCAGTC | 0.98 ± 0.046
127 | TATTTGAAGG | 0.986 ± 0.053
128 | TTGTCAGGGT | 0.995 ± 0.026
129 | TAAATCACGG | 1.02 ± 0.038
130 | GGGGACGTAT | 1.01 ± 0.019
131 | GGTGTGTGTC | 1.02 ± 0.02
132 | AAGTTTGTTA | 0.995 ± 0.042
133 | CTGTAAGGCG | 1.05 ± 0.025
134 | GGTTAAAGAA | 1.004 ± 0.0082
135 | TAGTTTCGGC | 0.958 ± 0.011
136 | AGGAATCGTT | 0.9969 ± 0.0072
137 | TATATGACGG | 0.997 ± 0.027
138 | TTCGCCGGTT | 1.02 ± 0.0021
139 | GAGAGCCGAA | 1.02 ± 0.062
140 | TCATACCATA | 1.09 ± 0.03
141 | TACGCCTGCA | 1.059 ± 0.0084
142 | TCTAATGGAA | 1.01 ± 0.018
143 | CGGGCCTTTT | 1 ± 0.023
144 | TTGTTAATAG | 1.06 ± 0.062
145 | GTATTGAGAT | 0.973 ± 0.063
146 | TGTCGAAAGA | 0.999 ± 0.013
147 | ATTAATATGT | 0.999 ± 0.023
148 | GGAATCATGG | 0.996 ± 0.046
149 | GAGGGTGTAA | 1.001 ± 0.01
150 | TCAATACTTC | 1.88 ± 0.19

Row | Sequence | switch fluorescence ratio
151 | AGGGTTGAGA | 0.985 ± 0.033
152 | TTGGGTTTTC | 1.03 ± 0.065
153 | GAATTAAGTT | 1.01 ± 0.033
154 | GCGCGGAGGA | 1.03 ± 0.029
155 | AAGTGGGTTC | 0.9824 ± 0.0052
156 | TGCGTTGCGG | 0.978 ± 0.029
157 | GACATAAAAG | 1.03 ± 0.053
158 | GTTGGGGTGT | 1.01 ± 0.013
159 | ATTTACTATA | 1.07 ± 0.0053
160 | TAGAAAGGCC | 1.03 ± 0.037
161 | AGTCTTTTTG | 0.999 ± 0.03
162 | TGGGCCATGT | 0.9791 ± 0.0065
163 | TCGGTAGCGA | 1.14 ± 0.17
164 | TTGGGCTTGA | 1.01 ± 0.056
165 | GACTATTGAA | 1 ± 0.056
166 | TAGGTAAGGT | 1.03 ± 0.029
167 | CGCGGTTCTG | 1.01 ± 0.029
168 | CCAATGTACT | 1.36 ± 0.05
169 | AGGGGCAGCT | 0.977 ± 0.024
170 | AGATCTTCGG | 1.001 ± 0.0076
171 | TCCGGGCCTT | 1.02 ± 0.09
172 | GCGAGGGTCT | 1.01 ± 0.027
173 | GGGGGAAAAA | 0.998 ± 0.059
174 | TTTCTAGTGG | 0.999 ± 0.03
175 | TTTCTTTGCA | 1.058 ± 0.0081

Row | Sequence | switch fluorescence ratio
176 | GGAAATTGGG | 0.994 ± 0.016
177 | GCTCCTAAAA | 1.1039 ± 0.00034
178 | TTGGTTTTCG | 0.973 ± 0.026
179 | AAAATTTTGG | 1 ± 0.043
180 | CATATAGCAC | 1.18 ± 0.019
181 | TTTATTTTCG | 1.02 ± 0.037
182 | ATTGTCGCCG | 1.02 ± 0.043
183 | TTTTCAGTGG | 1.02 ± 0.021
184 | TTCGTGACCC | 1.019 ± 0.0043
185 | ACGTGTTTTG | 1.02 ± 0.018
186 | GGAGCTGCGG | 0.9914 ± 0.0038
187 | TTAAGCATAG | 1.69 ± 0.91
188 | CCTAGGGGAG | 1.04 ± 0.04
189 | TCGGGGGGTC | 0.981 ± 0.043
190 | TTTATATGAA | 0.97 ± 0.042
191 | TGATGAGGAA | 0.97725 ± 0.00082
192 | TTCCCTAAGG | 2.35 ± 1.7
193 | TTGGACGGGA | 1.29 ± 0.47
194 | ACGGTGAACC | 0.989 ± 0.06
195 | CTTGAATCGT | 0.987 ± 0.013
196 | GTTAAATGTG | 0.972 ± 0.024
197 | CAATCATAGT | 0.989 ± 0.028
198 | CGAGCTCCAT | 1.015 ± 0.0054
199 | TCGTATTACG | 1.03 ± 0.094
200 | TGCGGGTGAT | 0.9857 ± 0.004
